Measurements reported in publication doi:10.1101/2020.11.17.387225.

Columns and labels:
[1] = molecular target: EccD5 (Mycobacterium xenopi); assay: cryo-EM structure
[2] = molecular target: EccB5 (Mycobacterium xenopi); assay: cryo-EM structure

Substance	stoichiometry N [1]	stoichiometry N [2]
EccD5 (natural protein)	2	
EccB5 (natural protein)		6
